From publication PMC2577357 (Nucleic Acids Research, 2008)

B1: pRNA 24-mer (ssRNA)
RNA: AUUCCGAUAGUGCGUGUCGCCCUU
modifications: 5'-phosphate
B2: Methanobacterium RNA ligase (MthRnl), full-length, His10-tagged (enzyme, Methanobacterium thermoautotrophicum ΔH, UniProt O27289 1-381, looked up)
chain: MNSMNSDIPFDLIQERTGVPSSRLKVAFARGSLRLLESAGMQALLFKKPLGDLEAGTVIYLGDETEVIRGFPKIRRTLLLSPTIQEHFRDRVAVEEKMNGYNVRIACLSSGETVALTRGGHVCPFTTRKAQELLDLSEFFREHPDLVICGEMIGRDNPYVSQDYPEVGPLGFRVFDLREKNTNRPLPVEERRALLDSYGLPNVRLFGVYPIEEAASEVADIIRALGMAGREGVVMKDPSMEVPPLKYTSSQAHARELAYAFSYPFDFGRPFFFSRVIREGFQAYELDESDDETRERARRLGEAIIYPMLERIKSISAGEAAYEDTVIDVEDREAAEEFIRHLVRLGVSATLADYRDGRATIRRFYQSTTDRINNYLKGGLY
B3: pDNA 24-mer (ssDNA)
DNA: ATTCCGATAGTGCGTGTCGCCCTT
modifications: 5'-phosphate

Experiments:
MthRnl = target: T1, MthRnl (Methanobacterium thermoautotrophicum ΔH, UniProt O27289 1-381); assay: EMSA
T1 sequence: B2 chain

[1] = target: the molecule itself; assay: glycerol gradient sedimentation

Binder	Kd (MthRnl)	stoichiometry N [1]
B1	~1500 nM	
B2		2
B3	~2000 nM	
